Several values for one entry are separate records, joined by “and”; a condition that tells them apart may be missing. Equal entries are not always repeated.
Test: Rabbit Study to Determine the Safety of Fetuin by Intravenous Administration
Type: in vivo
Set-up: Temp Increase / Wt. Gain Mar. 6, 2000 / Wt. Gain April 6, 2000 / Wt. Gain April 19, 2000 / Mean of Wt.Gain / Globulin / Alanine Transferase / Aspartate Transferase / Mean of ALT / Mean of AST: unit not given here
Conditions: rabbits; for Temp Increase: monitored 3 hours post injection; for Blood Glucose Level / Mean of blood Glucose level: non-fasting; for Wt. Gain: over 7 week period; for Albumin / Globulin: serum
Procedure: Rabbits weighing 1.75 to 2.5 kg are used in the study, 2 rabbits/group. The control group receives 1 ml of saline. […] All dilutions are made with sterile pyrogen free saline (0.9%). The study is designed to limit to an acceptable level the risk of a febrile reaction in patients. The animals are given their respective doses of Fetuin at two-day interval for a total of three doses if no reaction occurs. Blood samples are collected for a baseline prior to treatment and then 24-36 hours after the third treatment. At the end of the treatment period, blood is drawn to perform hematology to compare with the baseline levels. The body temperature is recorded for three hours post injection to determine if a febrile reaction is produced. The body temperature is monitored prior to injection (30 min) and then at 30 min interval for three hours. Prior to sacrifice, blood is drawn from each animal to determine the serum level of Fetuin. Organs are examined in all animals. The target organs: spleen, lymph nodes, thymus are examined for evidence of increased size. All tissues excised are preserved in 10% formalin for subsequent histopathology if necessary. Observations made at each dose level are tabulated to see if there is any correlation of symptoms and/or mortality and dose level of the test material. Body weights and necropsy results are recorded. Rabbit body temperature increases for each dose level is reported and conclusions made from the study.

Fetuin: Fetal bovine fetuin purified from fetal bovine serum by modified Spiro method; 60 Kd glycoprotein, homologue of alpha 2-HS glycoprotein
signs of distress during the test: None of the animals displayed any signs of distress
toxicity, conclusion of rabbit study (iv): no toxicity
Alanine Transferase (iv, 65.7 mg/kg): 54 and 29
Albumin/Globulin Ratio (iv, 65.7 mg/kg): 13.8 and 11.2
Aspartate Transferase (iv, 65.7 mg/kg): 28 and 32
Blood Urea Nitrogen (iv, 65.7 mg/kg): 21 mg/dL and 24 mg/dL
Cholesterol (iv, 65.7 mg/kg): 69 mg/dL and 71 mg/dL
Cholesterol Mean (iv, 65.7 mg/kg): 70 mg/dL
Hematocrit (iv, 65.7 mg/kg): 37.0% and 40.2%
Hematocrit % Mean (iv, 65.7 mg/kg): 38.6%
Hemoglobin (iv, 65.7 mg/kg): 12.6 g/dL and 13.4 g/dL
Hemoglobin Mean (iv, 65.7 mg/kg): 13.0 g/dL
Mean of ALT (iv, 65.7 mg/kg): 41.5
Mean of AST (iv, 65.7 mg/kg): 30
Mean of BUN (iv, 65.7 mg/kg): 22.5 mg/dL
Mean of WBC (iv, 65.7 mg/kg): 8.5 K/ul
Mean of Wt.Gain (iv, 65.7 mg/kg): 1.14
Spleen Wt. (iv, 65.7 mg/kg): 1.72 g and 1.54 g
Spleen Wt. Mean (iv, 65.7 mg/kg): 1.63 g
Thymus Wt. (iv, 65.7 mg/kg): 5.21 g and 6.56 g
Thymus Wt. Mean (iv, 65.7 mg/kg): 5.85 g
Ttl Serum Protn (iv, 65.7 mg/kg): 5.9 g/dL and 6.1 g/dL
WBC, K/ul (iv, 65.7 mg/kg): 6.9 K/ul and 10.1 K/ul
Wt. Gain April 6, 2000 (iv, 65.7 mg/kg): 3.15 and 3.28
Wt. Gain April 19, 2000 (iv, 65.7 mg/kg): 3.65 and 3.72
Wt. Gain Mar. 6, 2000 (iv, 65.7 mg/kg): 2.48 and 2.61
Temp Increase (iv, 65.7 mg/kg, Apr. 6, 2000): 0
Temp Increase (iv, 65.7 mg/kg, Mar. 6, 2000): 0
Blood Glucose Level (iv, 65.7 mg/kg): 94 mg/dL and 88 mg/dL
Mean of blood Glucose level (iv, 65.7 mg/kg): 91 mg/dL
Wt. Gain (iv, 65.7 mg/kg): 1.17 kg and 1.11 kg
Albumin (iv, 65.7 mg/kg): 5.5 and 5.6
Globulin (iv, 65.7 mg/kg): 0.4 and 0.5
Alanine Transferase (iv, 126 mg/kg): 42 and 32
Albumin/Globulin Ratio (iv, 126 mg/kg): 8.8
Aspartate Transferase (iv, 126 mg/kg): 37 and 66
Blood Urea Nitrogen (iv, 126 mg/kg): 20 mg/dL and 17 mg/dL
Cholesterol (iv, 126 mg/kg): 66 mg/dL and 49 mg/dL
Cholesterol Mean (iv, 126 mg/kg): 57.5 mg/dL
Hematocrit (iv, 126 mg/kg): 38.2% and 38.6%
Hematocrit % Mean (iv, 126 mg/kg): 38.4%
Hemoglobin (iv, 126 mg/kg): 12.4 g/dL and 12.9 g/dL
Hemoglobin Mean (iv, 126 mg/kg): 12.6 g/dL
Mean of ALT (iv, 126 mg/kg): 37
Mean of AST (iv, 126 mg/kg): 51.5
Mean of BUN (iv, 126 mg/kg): 18.5 mg/dL
Mean of WBC (iv, 126 mg/kg): 8.1 K/ul
Mean of Wt.Gain (iv, 126 mg/kg): 0.76
Spleen Wt. (iv, 126 mg/kg): 1.37 g and 1.9 g
Spleen Wt. Mean (iv, 126 mg/kg): 1.43 g
Thymus Wt. (iv, 126 mg/kg): 4.90 g and 5.21 g
Thymus Wt. Mean (iv, 126 mg/kg): 5.05 g
Ttl Serum Protn (iv, 126 mg/kg): 5.9 g/dL
WBC, K/ul (iv, 126 mg/kg): 6.7 K/ul and 9.5 K/ul
Wt. Gain April 6, 2000 (iv, 126 mg/kg): 3.31 and 3.10
Wt. Gain April 19, 2000 (iv, 126 mg/kg): 3.56 and 3.26
Wt. Gain Mar. 6, 2000 (iv, 126 mg/kg): 2.60 and 2.70
Temp Increase (iv, 126 mg/kg, Apr. 6, 2000): 0
Temp Increase (iv, 126 mg/kg, Mar. 6, 2000): 0
Blood Glucose Level (iv, 126 mg/kg): 221 mg/dL and 123 mg/dL
Mean of blood Glucose level (iv, 126 mg/kg): 172 mg/dL
Wt. Gain (iv, 126 mg/kg): 0.96 kg and 0.56 kg
Albumin (iv, 126 mg/kg): 5.3
Globulin (iv, 126 mg/kg): 0.6
Alanine Transferase (iv, 185 mg/kg): 49 and 36
Albumin/Globulin Ratio (iv, 185 mg/kg): 5.8 and 10.2
Aspartate Transferase (iv, 185 mg/kg): 26 and 23
Blood Urea Nitrogen (iv, 185 mg/kg): 19 mg/dL and 22 mg/dL
Cholesterol (iv, 185 mg/kg): 35 mg/dL and 56 mg/dL
Cholesterol Mean (iv, 185 mg/kg): 45.5 mg/dL
Hematocrit (iv, 185 mg/kg): 35.2% and 37.3%
Hematocrit % Mean (iv, 185 mg/kg): 36.3%
Hemoglobin (iv, 185 mg/kg): 11.4 g/dL and 12.3 g/dL
Hemoglobin Mean (iv, 185 mg/kg): 11.8 g/dL
Mean of ALT (iv, 185 mg/kg): 42.5
Mean of AST (iv, 185 mg/kg): 24.5
Mean of BUN (iv, 185 mg/kg): 20.5 mg/dL
Mean of WBC (iv, 185 mg/kg): 8.75 K/ul
Mean of Wt.Gain (iv, 185 mg/kg): 1.02
Spleen Wt. (iv, 185 mg/kg): 1.71 g and 1.64 g
Spleen Wt. Mean (iv, 185 mg/kg): 1.67 g
Thymus Wt. (iv, 185 mg/kg): 5.26 g and 5.60 g
Thymus Wt. Mean (iv, 185 mg/kg): 5.43 g
Ttl Serum Protn (iv, 185 mg/kg): 6.1 g/dL and 5.6 g/dL
WBC, K/ul (iv, 185 mg/kg): 10.7 K/ul and 6.8 K/ul
Wt. Gain April 6, 2000 (iv, 185 mg/kg): 3.19 and 3.26
Wt. Gain April 19, 2000 (iv, 185 mg/kg): 3.69 and 3.77
Wt. Gain Mar. 6, 2000 (iv, 185 mg/kg): 2.80 and 2.61
Temp Increase (iv, 185 mg/kg, Apr. 6, 2000): 0
Temp Increase (iv, 185 mg/kg, Mar. 6, 2000): 0
Blood Glucose Level (iv, 185 mg/kg): 117 mg/dL and 89 mg/dL
Mean of blood Glucose level (iv, 185 mg/kg): 103 mg/dL
Wt. Gain (iv, 185 mg/kg): 0.89 kg and 1.16 kg
Albumin (iv, 185 mg/kg): 5.2 and 5.1
Globulin (iv, 185 mg/kg): 0.9 and 0.5
rectal temperature change over 3 hr post injection (any dosages of Fetuin): did not cause body temperature increase

Source: US20030044400A1, “Composition and method for treating cells” (priority 2001, published 2003)
